Experimental data reported in US9371374 (AbbVie / Abbott, dated 2016).

B1: HCV 208B-589 (antibody, V domains shown)
VH: QVQLQQSGAGLAKPGASVKMSCKASGYTFTANKMHWAKQRPGQGLEWIGYIDPSSGYTEYNHKIQDKATLTADTSSSTAYMQLSSLTFEDSAVYYCTNFAYWGQGTLVTVSA
VL: DIVMTQTPLTLSVTIGQPASISCKSSQSLLFTNGKTYLNWFLQRPGQSPKRLIYLLSKLDSGVPDRFSGSGSGTDFTLKISRVEAEDLGVYYCLQSTYFPLTFGAGTKLELKR
B2: HCV 208B-174 (antibody, V domains shown)
VH: EVKLEESGGGLVQPGGSMKLSCVASGFSFSSYWMSWVRQSPEKGLDWVAEIRLRSDNYATHYAESVKGRFTISRDDSISRLYLQMNTLRAEDTGIYYCTWMTYWGQGTLVTVSA
VL: QNVLTQSPAIMSASPGEKVTMSCSASSSVTYMFWYQLKPESSPRLLIYDTSNLASGVPVRFSGSGSGTSYSLTISRMEAEDAATYYCQEWSSYPLTFGAGTKLDLKR
B3: HCV 208A-352 (antibody, V domains shown)
VH: QGQMQQSGAELVKPGASVKLSCKTSGFTFSSSFISWLKQKPGQSLEWIAWIYAGTGNTNYNQKFTDKAQLTVDTSSSTAYMQFSSLTTEDSAIYYCAISGTGFTYWGQGTLVTVSA
VL: DVLMAQTPLSLPVTLGDQASISCRSSQSLVHSNGNTYLEWFLQKPGQSPKLLIYNVSNRFSGVPDRFSGSGSGTDFTLKISRVEAEDLGVYYCFQGSHVPLTFGSGTKLEIKR
B4: HCV 208A-134 (antibody, V domains shown)
VH: QGQMQQSGAELAKPGASVKLSCKTSGFTFSSSYISWLKQKPGQSLEWIAWIYAGTGNTNYNQKFTDKAQLTVDTSSSTAYMQLSSLTTEDSAIYYCAISGTGFTYWGQGTLVTVSA
VL: EVLMTQSPLSLPVSLGDQASISCRSSQSLEHTNGNTYLEWFLQRPGQPPKLLIYKVSSRFSGVPDRFSGSGSGTDFTLKISRVEAEDLGVYYCFQGSHVPFTFGSGTKLAIKR
B5: HCV 208B-1024 (antibody, V domains shown)
VH: EVQLVESGGDLVKPGGSLKLSCAASGFTFSNYGMSWVRQTPDKRLEWVATISSGGSYSYYPDSVKGRFTISRDNAKNILYLQMSSLKSEDTAMYYCASLYYGYGDYWGQGTAFTVSS
VL: DVLMTQTPLSLPVSLGDQASISCRSSQSIVHSNGNTYLEWYLQKLGQSPKLLIYRVSNRFSGVPDRFSGSGSGTDFTLKISRVEAEDLGVYYCFQGSHVPWTFGGGTKLEIKR
B6: HCV 208B-281 (antibody, V domains shown)
VH: QGQLQQSGAELVKPGASVKLSCKTSGFTFSSSYISWLKQRPGQSLEWIAWIYAGTGGTNYNQKFTDKAQLTVDTSSSTAYMQFSSLTTEDSAIYYCAISGTGFIYWGQGTLVTVSA
VL: DVLMTQTPLSLPVSLGDQASISCRSSQSLVHNNGNTYLEWFLQKPGQSPKLLIYKVSNRFSGVPDRFSGSGSGTDFTLKISRVEAEDLGVYYCFQGSHVPFTFGSGTKLEIKR
B7: HCV 208A-983 (antibody, V domains shown)
VH: QGQMQQSGAELVKPGASVKLSCKTSGFTFSSSYFSWLKQKPGQSLEWIAWIYAGTGNTIYNQKFTDKAQLTVDTASSTAFMQLSSLTIEDSAIYYCAISGTGFTYWGQGTLVTVSA
VL: DVLMTQTPLSLPVNLGDQASISCRSSQSLLHSNGNTYLEWFLQKPGQSPKLLIYNVSNRFSGVPDRFSGSGSGTDFTLKISRVEAEDLGVYYCFQGSHVPFTFGSGTKLAIKR
B8: HCV 208A-638 (antibody, V domains shown)
VH: QGQLQQPGAEFVKPGASLKLSCRASGYTFTSYWIHWVKQRPGQGLEWIGEVDPSDSYINQNEKFRGKATLTVDKSSSTAYMQLGSLTSEDSAVYYCARHYYGVLDSWGQGTALTVSS
VL: QIVLTQSPTIMSASLGERVTMTCTASSSVSSSYLHWFQQKPGSSPKLWIYSTSNLASGVPPRFSGSGSGTSYSLSISSVEAEDVATYYCLQFHRSPWTFGGGAKLEIKR
B9: HCV 208A-877 (antibody, V domains shown)
VH: QLQQSGPELVKPGASVKISCKTSGYTFTENAMHWVKQSRGKSLEWIGGVNPNNGDTVYTQKFKGKATLTVAKSSSTAYMELRTMTCEESTVYYCASREPDFFDYWGQGSSVTVSS
VL: QIVLTQSPAIMSVSPGEKVSMTCSASSSVTYMHWYQQKSGTSPKRWIYDTSELASGVPARFSGSGSGTTYSLTISSMEAEDAATYYCQQWSNKPLTFGAGTKLELKR
B10: HCV 208B-560 (antibody, V domains shown)
VH: EVQLQQSGPELEKPGASVKISCKTSGYTFTEYAMHWVKQSHGMSLEWIGGINPSNGNAIYNQIFKDKATLTVDRSSSTAYMGLRSLTFGDSGVYFCVRRQLDFFDYWGQGASLTVSS
VL: DIVVTQSPASLAVSLGQRATISCRASQSVSTSRYSYLHWYQQKPGQPPKLLIKYASNLESGVPARFSGSGSGTDFTLNIHPVGEEDTATYYCQHSWEFPFTFGSGTKLEIKR
B11: HCV 208A-830 (antibody, V domains shown)
VH: EVRLQQPGPEVEKPGASVKISCKTSGYTFTEYAIHWVKQSHGESLEWIGGINPSNGDPIYNQIFKDKATLTVDRSSNTAYMGLRSLTVGDSGVYFCVRRQLDYFDFWGQGASLTVSS
VL: DIVLTQSPASLAVSLGQRATISCRSSQSVSTSRYSYLHWYQQKPGQPPKLLIKYASNLESGVPARFSGSGSGTDFTLNIHPVGEEDPATYYCQHSWEFPFTFGSGTKLEIKR
B12: HCV 208A-920 (antibody, V domains shown)
VH: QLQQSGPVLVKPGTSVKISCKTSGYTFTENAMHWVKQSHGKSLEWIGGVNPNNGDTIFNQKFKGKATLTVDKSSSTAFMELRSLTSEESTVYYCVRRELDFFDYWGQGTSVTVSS
VL: DIVLTQSPASLAVSLGQRATISCRASQSVSTSRYSYMHWYQQKPGQPPKLLIKYASNLESGVPARFSGSGSGTDFTLNIHPVAEEDTAAYYCQHSWEFPFTFGSGTKLEIKR
B13: HCV 208A-1064 (antibody, V domains shown)
VH: EVQLQQSGPELVKPGASVKISCKTSGYTFTEYAMHWMKQSHGKSLEWIGGINPTNGDTIYNQKFKDKAKLTVDRSSSTAYMELRSLTSDDSALFYCARRELDYFASWGQGTTLTVSS
VL: DIVLTQSPASLIVSLGQTATISCRASQSVSTSRFSYLHWIQQKPGQPPKLLIKYASNLESGVPVRFSGSGSGTDFTLNIHPVEEEDTATYFCQHSWEFPFTFGSGTKLKIKR
B14: HCV 208A-605 (antibody, V domains shown)
VH: EVQLQQSGPELEKPGASVKISCKTSGYTFTEYAIHWVKQSHGMSLEWIGGINPSNGNAIYNQIFKDKATLTVDRSSSTAYMGLRSLTFGDSGVYFCVRRQLDFFDYWGQGASLTVSS
VL: DIVVTQSPASLAVSLGQRATISCRASQSVSTSRYSYLHWYQQKPGQPPKLLIKYASNLESGVPARFSGSGSGTDFTLNIHPVGEEDTATYYCQHSWEFPFTFGSGTKLEIKR
B15: HCV 208B-556 (antibody, V domains shown)
VH: QLQQSGPVLVKPGASVMISCKTSGYTFTENAMHWVKQSHGKSLEWIGGVNPNNGDTIFNQKFKGKATLTVDKSSSTAFMEFRSLTSEESTVYYCVRRELDFFDYWGQGTSVTVSS
VL: DIVLTQSPASLAVSLGQRATISCRASQSVSTSRYSYMHWYQQKPGQPPKLLIKYASNLESGVPARFSGSGSGTDFTLNIHPVAEEDTATYYCQHSWEFPFTFGSGTKLEIKR
B16: HCV 208A-334 (antibody, V domains shown)
VH: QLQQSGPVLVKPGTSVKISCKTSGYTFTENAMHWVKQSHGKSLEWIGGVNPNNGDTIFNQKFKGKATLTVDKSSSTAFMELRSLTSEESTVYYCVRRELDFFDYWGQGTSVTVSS
VL: DIVLTQSPASLAVSLGQRATISCRASQSVSTSRYSYMHWYQQKPGQPPKLLIKYASNLESGVPARFSGSGSGTDFTLNIHPVAEEDTAAYYCQHSWGFPFTFGSGTKLEIKR
B17: HCV 208B-251 (antibody, V domains shown)
VH: QLQQSGPVLVKPGASVKISCKTSGYTFTENAMHWVKQSHGKSLEWIGGVNPNNGDTIYNQKFKGKATLTVDKSSSTAFMELRSLTSEESPVYFCVRRELDFFDYWGQGTSVTVSS
VL: DIVLTQSPASLAVSLGKKATISCRASQSVSTSRYSYMHWYQQKPGHPPKLLIKYASNLESGVPARFSGSGSGTDFTLNIHPVAEEDTAAYYCQHSWEFPFTFGSGTKLEIKR
B18: HCV 208A-159 (antibody, V domains shown)
VH: QLQQSGPAQVKPGASVMISCKTSGYTFTENAMHWVKQSHGKSLEWIGGVNPNNGDTIFNQKFKDKAALTVDKSSSTAFMELRSLTSEESTVYYCVRRELDFFDYWGQGTSVTVSS
VL: DIVLTQSPASLAVSLGQRATISCRASQSVSTSRYSYVHWYQQKPGQPPKLLIKYAANLESGVPARFSGSGSGTDFTLNIHPVAEEDAAAYYCQHSWEFPFTFGSGTKLEIKR
B19: HCV 208B-1094 (antibody, V domains shown)
VH: EVQLQQSGPELVKPGASVKISCKTSGYTFTEYAMHWMKQSHGKSLEWIGGINPTNGDTIYNQRFKDKAKLTVDRSSSTAYMELRSLTSDDSALFYCARRELDYFASWGQGTTLTVSS
VL: DIVLTQSPASLIVSLGQTATISCRASQSLSTSRFSYVHWIQQKPGQPPKLLIKYASNLESGVPVRFSGSGSGTDFTLNIHPVEEEDTATYFCQHSWEFPFTFGSGTKLKIKR
B20: HCV 208A-222 (antibody, V domains shown)
VH: EVQLQQSGPELEKPGASVRISCKTSGYTFTEYAMHWVKQSHGKSLEWIGGINPNNGNAIYNQIFKDKATLTVDRSSSTAYMGLRSLTFGDSGVYFCVRRQLDYFDYWGQGASLTVSS
VL: DIVVTQSPASLAVSLGQRATISCRASQSVSTSRYSYLHWYQQKPGQPPKLLIKYASNLESGVPARFSGSGSGTDFTLNIHPVGEEDTATYYCQHSWEFPFTFGSGTKLEIKR
B21: HCV 208A-133 (antibody, V domains shown)
VH: QLQQSGPVLVGPGASVMISCKTSGYTFTENAMHWVEQSHGKSLEWIGGVNPNNGDTIFNQKFKGKATLTVDKSSSTAFMEFRSLTSEESTVYYCVRRELDFFDYWGQGTSVTVSS
VL: DIVLTQSPASLAVSLGQRATISCRASQSVSTSRYSYMHWYQQKPGQPPKLLIKYASNLESGVPARFSGSGSGTDFTLNIHPVAEEDTATYYCQHSWEFPFTFGSGTKLEIKR

What follows are binders tested against HCV Core 134-171-TT peptide (ALRZ-9 peptide) (HCV-1) (assay: SPR, captured mAb;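 note: Anti-HCV Core mAbs from hybridoma supernatants held on a rabbit anti-mouse IgG CM5 surface, peptide flowed over 3 min then 4 min dissociation, duplicate concentrations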).
B1 was tested, and the Kd was 0.63 nM, the koff was 0.00061 s⁻¹ and the kon was 960000 M⁻¹ s⁻¹. B2 was tested, and the Kd was 0.25 nM, the koff was 0.00018 s⁻¹ and the kon was 760000 M⁻¹ s⁻¹. Binder B3 has a Kd of 0.52 nM, a koff of 5.4e-05 s⁻¹ and a kon of 100000 M⁻¹ s⁻¹. B4 was tested, and the Kd was 2.1 nM, the koff was 3.8e-05 s⁻¹ and the kon was 18000 M⁻¹ s⁻¹. In the case of B5, the Kd is reported as 15 nM, the koff is reported as 0.014 s⁻¹ and the kon is reported as 1e+06 M⁻¹ s⁻¹. B6 showed a Kd of 96 nM, a koff of 0.00025 s⁻¹ and a kon of 2200 M⁻¹ s⁻¹. Work on B7 yielded a Kd of 0.46 nM, a koff of 4.6e-05 s⁻¹ and a kon of 97000 M⁻¹ s⁻¹. B8 was tested, and the Kd was 0.2 nM, the koff was 0.00053 s⁻¹ and the kon was 2.7e+06 M⁻¹ s⁻¹. For B9, the Kd was 2.2 nM, the koff was 0.0024 s⁻¹ and the kon was 1.1e+06 M⁻¹ s⁻¹. Work on B10 yielded a Kd of 0.23 nM, a koff of 0.00026 s⁻¹ and a kon of 1.1e+06 M⁻¹ s⁻¹. B11 was tested, and the Kd was 0.16 nM, the koff was 0.00054 s⁻¹ and the kon was 3.4e+06 M⁻¹ s⁻¹. B12 gave a Kd of 0.39 nM, a koff of 0.00056 s⁻¹ and a kon of 1.5e+06 M⁻¹ s⁻¹. In the case of B13, the Kd is reported as 0.21 nM, the koff is reported as 0.00034 s⁻¹ and the kon is reported as 1.6e+06 M⁻¹ s⁻¹. For B14, the Kd was 0.43 nM, the koff was 0.00037 s⁻¹ and the kon was 870000 M⁻¹ s⁻¹. Work on B15 yielded a Kd of 0.4 nM, a koff of 0.0006 s⁻¹ and a kon of 1.5e+06 M⁻¹ s⁻¹. Work on B16 yielded a Kd of 0.34 nM, a koff of 0.00057 s⁻¹ and a kon of 1.7e+06 M⁻¹ s⁻¹. Binder B17 has a Kd of 0.58 nM, a koff of 0.00065 s⁻¹ and a kon of 1.1e+06 M⁻¹ s⁻¹. With B18 the Kd was 0.45 nM, the koff was 0.00065 s⁻¹ and the kon was 1.4e+06 M⁻¹ s⁻¹. Binder B19 has a Kd of 0.16 nM, a koff of 0.00025 s⁻¹ and a kon of 1.5e+06 M⁻¹ s⁻¹. Binder B20 has a Kd of 0.31 nM, a koff of 0.00035 s⁻¹ and a kon of 1.1e+06 M⁻¹ s⁻¹. Work on B21 yielded a Kd of 0.41 nM, a koff of 0.0005 s⁻¹ and a kon of 1.2e+06 M⁻¹ s⁻¹.
